According to article PMC9718833:

How the values were obtained:
[1] = target: Gi3 heterotrimer of the BRET-based Gi-activation sensor (Gai3-RlucII / GFP10Gγ2 / Gβ1) (UniProt P08754)
[2] = target: Gs protein (human (endogenous in HEK293T)) (UniProt P63092)
Sequence of UniProt P63092 (P63092 whole entry, looked up): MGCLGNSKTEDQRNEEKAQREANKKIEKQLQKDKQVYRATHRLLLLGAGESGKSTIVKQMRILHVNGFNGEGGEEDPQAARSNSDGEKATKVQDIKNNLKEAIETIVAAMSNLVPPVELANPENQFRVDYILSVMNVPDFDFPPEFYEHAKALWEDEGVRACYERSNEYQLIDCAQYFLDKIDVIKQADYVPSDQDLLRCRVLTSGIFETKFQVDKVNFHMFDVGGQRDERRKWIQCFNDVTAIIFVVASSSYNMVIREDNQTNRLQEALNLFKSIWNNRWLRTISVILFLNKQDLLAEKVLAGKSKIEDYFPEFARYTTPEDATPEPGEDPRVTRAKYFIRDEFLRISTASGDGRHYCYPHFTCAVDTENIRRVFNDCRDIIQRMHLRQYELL

Sequence of UniProt P08754 (P08754 whole entry, chain 1 of 3): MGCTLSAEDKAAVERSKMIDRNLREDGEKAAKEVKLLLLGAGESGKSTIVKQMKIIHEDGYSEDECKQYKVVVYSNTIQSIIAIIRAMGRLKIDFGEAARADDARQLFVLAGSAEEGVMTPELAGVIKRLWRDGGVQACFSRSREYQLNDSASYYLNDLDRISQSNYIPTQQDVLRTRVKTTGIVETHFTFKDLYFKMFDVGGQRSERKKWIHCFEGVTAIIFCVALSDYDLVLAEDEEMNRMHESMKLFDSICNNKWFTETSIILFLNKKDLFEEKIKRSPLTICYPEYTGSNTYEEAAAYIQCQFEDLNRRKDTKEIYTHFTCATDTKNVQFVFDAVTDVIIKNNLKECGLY
Sequence of UniProt P08754 (P62873 whole entry, chain 2 of 3, further chain): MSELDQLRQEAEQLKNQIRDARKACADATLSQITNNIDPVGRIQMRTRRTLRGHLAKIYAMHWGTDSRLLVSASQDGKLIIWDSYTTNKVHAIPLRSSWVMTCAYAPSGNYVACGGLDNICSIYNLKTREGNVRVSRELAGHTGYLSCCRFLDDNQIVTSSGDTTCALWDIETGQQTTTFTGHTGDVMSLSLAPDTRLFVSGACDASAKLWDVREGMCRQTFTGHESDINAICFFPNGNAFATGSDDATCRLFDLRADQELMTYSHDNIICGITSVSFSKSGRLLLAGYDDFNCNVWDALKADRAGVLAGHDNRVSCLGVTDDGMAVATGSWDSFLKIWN
Sequence of UniProt P08754 (P59768 whole entry, chain 3 of 3, further chain): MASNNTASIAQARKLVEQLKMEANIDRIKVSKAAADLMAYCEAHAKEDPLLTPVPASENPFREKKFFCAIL

HA-tagged human M1 muscarinic acetylcholine receptor (CHRM1) A424K (from UniProt P11229 1-460)
increase of the Emax of CHRM1 activation of Gi compared to WT CHRM1, BRET-based Gi-activation (Gi3) sensor in HEK293T, carbachol (% increase of Emax against WT) [1]: 31

HA-tagged human M1 muscarinic acetylcholine receptor (CHRM1) R218Q (from UniProt P11229 1-460)
increase of the Emax of Gs-dependent cAMP production following carbachol, EPAC-BRET sensor in HEK293T with 500 nM of the Gq inhibitor YM-254890, against WT CHRM1 (% increase of Emax) [2]: 17

HA-tagged human M1 muscarinic acetylcholine receptor (CHRM1) E221K (from UniProt P11229 1-460)
increase of the Emax of CHRM1 activation of Gi compared to WT CHRM1, BRET-based Gi-activation (Gi3) sensor in HEK293T, carbachol (% increase of Emax against WT) [1]: 30

HA-tagged human M1 muscarinic acetylcholine receptor (CHRM1) L131F (from UniProt P11229 1-460)
increase of the Emax of Gs-dependent cAMP production following carbachol, EPAC-BRET sensor in HEK293T with 500 nM of the Gq inhibitor YM-254890, against WT CHRM1 (% increase of Emax) [2]: 51
